Assay results from patent US20040254354A1 (INHIBITEX, published 2004).

B2: biotinylated recombinant region A from ClfA (other)
chain: SENSVTQSDSASNESKSNDSSSVSAAPKTDDTNVSDTKTSSNTNNGETSVAQNPAQQETTQSSSTNATTEETPVTGEATTTTTNQANTPATTQSSNTNAEELVNQTSNETTFNDTNTVSSVNSPQNSTNAENVSTTQDTSTEATPSNNESAPQSTDASNKDVVNQAVNTSAPRMRAFSLAAVAADAPAAGTDITNQLTNVTVGIDSGTTVYPHQAGYVKLNYGFSVPNSAVKGDTFKITVPKELNLNGVTSTAKVPPIMAGDQVLANGVIDSDGNVIYTFTDYVNTKDDVKATLTMPAYIDPENVKKTGNVTLATGIGSTTANKTVLVDYEKYGKFYNLSIKGTIDQIDKTNNTYRQTIYVNPSGDNVIAPVLTGNLKPNTDSNALIDQQNTSIKVYKVDNAADLSESYFVNPENFEDVTNSVNITFPNPNQYKVEFNTPDDQITTPYIVVVNGHIDPNSKGDLALRSTLYGYNSNIIWRSMSWDNEVAFNNGSGSGDGIDKPVVPEQPDEPGEIEPIPE
modifications: biotinylated (sites not given)
notes: domain: region A; also called ClfA region A; biotinylated ClfA

Tests used:
human fibrinogen (human) = human fibrinogen (human) (UniProt P02671); test: cell-based or functional assay
[1] = molecular target: B2; test: Western affinity blot of human fibrinogen (FIG. 22)
bovine serum albumin = molecular target: T1, bovine serum albumin (bovine, UniProt P02769 25-607); test: direct ELISA, biotinylated region A on BSA-coated plates
T1 construct: also called BSA
T1 sequence (P02769 25-607 limits assumed): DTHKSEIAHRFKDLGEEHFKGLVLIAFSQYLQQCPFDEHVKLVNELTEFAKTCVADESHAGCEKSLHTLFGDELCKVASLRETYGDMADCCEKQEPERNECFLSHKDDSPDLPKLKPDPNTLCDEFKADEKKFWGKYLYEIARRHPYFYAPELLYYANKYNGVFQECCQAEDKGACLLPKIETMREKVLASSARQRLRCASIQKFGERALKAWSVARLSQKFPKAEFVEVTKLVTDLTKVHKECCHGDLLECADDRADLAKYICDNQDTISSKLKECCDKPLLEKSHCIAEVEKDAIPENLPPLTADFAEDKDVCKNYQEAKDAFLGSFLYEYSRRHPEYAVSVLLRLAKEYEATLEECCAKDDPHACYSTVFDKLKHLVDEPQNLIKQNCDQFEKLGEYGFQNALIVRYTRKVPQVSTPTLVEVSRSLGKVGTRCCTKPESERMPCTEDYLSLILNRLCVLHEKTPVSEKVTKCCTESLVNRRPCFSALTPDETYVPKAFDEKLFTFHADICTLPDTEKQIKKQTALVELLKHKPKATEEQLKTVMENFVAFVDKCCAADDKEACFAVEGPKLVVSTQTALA

human fibrinogen = molecular target: T2, human fibrinogen (human, UniProt P02671 20-629; P02675 31-491; P02679 27-437); test: direct ELISA, biotinylated region A on fibrinogen-coated plates
T2 construct: Bought (Chromogenix for ELISA and blots; Calbiochem, plasminogen free, for clumping assays); The plate adherence paragraphs say only 'fibrinogen'; also called solid phase fibrinogen; immobilized fibrinogen
T2 sequence 1: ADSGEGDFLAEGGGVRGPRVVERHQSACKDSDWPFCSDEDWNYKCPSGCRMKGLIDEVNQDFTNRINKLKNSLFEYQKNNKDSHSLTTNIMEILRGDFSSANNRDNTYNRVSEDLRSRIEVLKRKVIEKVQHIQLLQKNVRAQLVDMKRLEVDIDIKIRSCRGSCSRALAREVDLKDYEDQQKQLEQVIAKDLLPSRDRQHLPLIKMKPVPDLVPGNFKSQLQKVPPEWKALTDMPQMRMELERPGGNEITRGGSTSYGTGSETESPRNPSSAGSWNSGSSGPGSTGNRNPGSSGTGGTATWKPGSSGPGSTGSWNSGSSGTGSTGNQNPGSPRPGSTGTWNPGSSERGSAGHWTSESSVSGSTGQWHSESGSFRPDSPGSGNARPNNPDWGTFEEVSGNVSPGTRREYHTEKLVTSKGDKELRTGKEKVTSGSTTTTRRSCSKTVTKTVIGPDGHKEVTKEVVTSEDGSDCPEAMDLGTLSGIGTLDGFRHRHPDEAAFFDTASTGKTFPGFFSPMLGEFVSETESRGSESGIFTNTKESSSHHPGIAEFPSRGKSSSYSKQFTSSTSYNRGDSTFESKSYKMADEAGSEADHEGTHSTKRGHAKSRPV
T2 sequence 2: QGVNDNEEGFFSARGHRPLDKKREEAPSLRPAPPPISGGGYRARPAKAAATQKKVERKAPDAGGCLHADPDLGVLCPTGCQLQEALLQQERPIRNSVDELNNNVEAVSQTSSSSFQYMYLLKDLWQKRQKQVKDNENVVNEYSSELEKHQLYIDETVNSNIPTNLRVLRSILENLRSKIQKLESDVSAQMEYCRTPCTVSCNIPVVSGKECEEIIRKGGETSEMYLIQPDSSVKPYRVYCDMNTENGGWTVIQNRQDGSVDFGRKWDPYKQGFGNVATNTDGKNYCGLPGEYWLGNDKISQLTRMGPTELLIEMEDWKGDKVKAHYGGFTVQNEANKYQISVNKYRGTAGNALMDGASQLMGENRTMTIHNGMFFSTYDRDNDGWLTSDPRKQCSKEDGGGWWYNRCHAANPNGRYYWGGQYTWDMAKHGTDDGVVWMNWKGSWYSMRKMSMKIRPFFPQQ
T2 sequence 3: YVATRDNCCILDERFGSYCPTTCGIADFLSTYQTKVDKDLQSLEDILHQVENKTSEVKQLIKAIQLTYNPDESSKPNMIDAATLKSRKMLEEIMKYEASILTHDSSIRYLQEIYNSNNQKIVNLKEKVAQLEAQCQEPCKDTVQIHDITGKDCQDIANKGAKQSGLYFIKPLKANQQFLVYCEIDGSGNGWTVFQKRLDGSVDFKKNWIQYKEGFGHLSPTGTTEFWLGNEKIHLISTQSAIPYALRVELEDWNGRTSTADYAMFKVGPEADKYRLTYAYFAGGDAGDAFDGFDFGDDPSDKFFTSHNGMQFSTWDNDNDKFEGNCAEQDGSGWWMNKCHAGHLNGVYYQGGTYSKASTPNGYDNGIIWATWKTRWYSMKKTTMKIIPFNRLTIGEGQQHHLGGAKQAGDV

Question: What does the source list for “ClfA (native, on S. aureus Newman cells) (from UniProt Q53653 40-899)”?
Answer: Clumping titer, µg/ml fibrinogen; clfB mutant, exponential phase (µg/ml fibrinogen) (human fibrinogen (human)): 1.95; Clumping titer, µg/ml fibrinogen; clfB mutant, stationary phase (µg/ml fibrinogen) (human fibrinogen (human)): 0.98; Clumping titer, µg/ml fibrinogen; wild-type, stationary phase (µg/ml fibrinogen) (human fibrinogen (human)): 0.98

B1: γ chain of human fibrinogen (ligand)
chain: YVATRDNCCILDERFGSYCPTTCGIADFLSTYQTKVDKDLQSLEDILHQVENKTSEVKQLIKAIQLTYNPDESSKPNMIDAATLKSRKMLEEIMKYEASILTHDSSIRYLQEIYNSNNQKIVNLKEKVAQLEAQCQEPCKDTVQIHDITGKDCQDIANKGAKQSGLYFIKPLKANQQFLVYCEIDGSGNGWTVFQKRLDGSVDFKKNWIQYKEGFGHLSPTGTTEFWLGNEKIHLISTQSAIPYALRVELEDWNGRTSTADYAMFKVGPEADKYRLTYAYFAGGDAGDAFDGFDFGDDPSDKFFTSHNGMQFSTWDNDNDKFEGNCAEQDGSGWWMNKCHAGHLNGVYYQGGTYSKASTPNGYDNGIIWATWKTRWYSMKKTTMKIIPFNRLTIGEGQQHHLGGAKQAGDV
notes: also called gamma-chain of fibrinogen; y chain of fibrinogen
Question: Does B1 bind [1]?
Answer: Result: binds

Question: Does B2 bind (bovine serum albumin)?
Answer: Result: no binding

Question: And the “binding at the highest concentration, relative to ClfB region A” value (human fibrinogen)?
Answer: Its value is roughly 50 % greater than ClfB.
